Test system: MS2 coat protein
Test: apparent KD of MS2 coat protein; higher = weaker reporter binding
Details: Eterna round: R107
How it was run: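 Each design's apparent KD comes from the median of binding-curve fits to its normalised clusters. Those clusters carried RNA switches transcribed on-chip from Illumina sequencing clusters. SNAP-549-labelled MS2 coat protein was titrated onto them in twofold steps (0.7 or 1.5 nM to 3 µM; per step 0.8–1.5 h down to 10–20 min). Conditions were 100 mM Tris-HCl pH 7.5, 80 mM KCl, 4 mM MgCl2, without or with constant ligand.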

[1] = input ligand: theophylline 20 uM
[2] = input ligand: theophylline 2 mM
[3] = input ligand: tryptophan 2.4 mM

Sequence	apparent KD of MS2 coat protein (input ligand: arginine 13.2 mM) [nM]	apparent KD of MS2 coat protein [1] [nM]	apparent KD of MS2 coat protein [2] [nM]	apparent KD of MS2 coat protein (input ligand: none) [nM]	apparent KD of MS2 coat protein [3] [nM]
GACGCAUGAGUUGGAACAGCUCAUGGGUCGCGAGGACCGGUACGGCCGCCACUCGGCUGUACAUGAGGAUCACCCAUGUCAGGGU [#1 Same State - Tryptophan A Attempt #30 (HarryS)]	72.7	329	942	–	–
CCGCACAUGAGGAUCACCCAUGUCAGGGAUACCAGCCCAGACAUGGGCCCUUGGCAGCCCUGUAGCUGACGAAAGUCAGCAGCGG [Omei Theo A SS A v1]	51.9	277	57.6	31.7	44.7
AGCCGGAUUACGGCCGCCACUGUAGACGUGACGAAAGUCGCGUCAACAUGAGGAUCACCCAUGUACAGGACCGGGUGGUCGGGCG [Omei Tryp B SS A v5]	74.1	247	240	–	–
AAUCGUAAGGCGGCCGCCACUACACAUGAGGAUCACCCAUGUCUCGCGGGCUUGCGUUGGGAUUGUAGGACCGGGCCAGUAAUAA [Exclusion - Tryptophan B (Freestyle 12)]	19.3	37.9	23.5	26.4	21.3
GUAUUAAGAAAACUUGAUACAGUGGGUGAACGAGGACCGGUACGGCCGCCACUCGGACAUGAGGAUCACCCAUGUCCAUGUGAAA [AstrosExyTryA#11]	17.4	18.6	17.2	19.1	37.7
CUCCUGGGAGCGGCCGCCACUGGAGGCCUCGCGCGACAUGAGGAUCACCCAUGUUGGCCCGGCCUCAGGACCGGGUUCGCGCGAG [Same State - Tryptophan B Attempt #3]	8.01	17.9	10.6	12.9	10
UGUAUGGACUGAAGGAGCGGGAAAAUAACCUGAGGAUCACCCAGGUAAAAGGCGAAAGCCACCCAGGUAGGUCGCAGUCCAUACU	5.69	10.2	10.6	10.7	12.5
AAAAUAAAUAAAACACGUAACAUGAAGGAUACCAGCCAGAAAACUGGCCCUUGGCAGCCUCUACAUGAGGAUCACCCAUGUCGUG [Mat - Same State Theophlline A - Mod of Eli - D16]	156	114	–	–	293
GUUUUCAAGUCGGCCGCCACUGAUACAAUCCUCACCGGUUCACAUGAGGAUCACCCAUGUUCGCUCAGGACCGGGACCUUCUGUG [theeternabot_exclusion_MS2_Trp_B_3]	77.4	141	142	–	–
UGGGUAGCAUAGAUUGAUAGCUACACUGAAGGAGCGAGGAUAACCUCAGGUAGGUCGCAGACAUGAGGAUCACCCAUGUAGAUGG [Same State Arginine A GF17]	77.7	174	252	254	209
UGUUUGGUGCGCGAGUGUUGGAUAAUUGAUACCAGUGUAGAUGUACGCCCUUGGCAGCGAAUCCGAACAUGAGGAUCACCCAUGU [5.aA]	36.7	45.6	–	–	30.2
UGUACCAUGUCGGCCGCCACUUGAAAUAAACAAGAGGAUCACCCUUGUGACGUCAAAGACGUCUCAAGGACCGGGACAUGGUACU [TryBS Zipper #StaticStem #Zipper]	168	281	357	313	19
CUAUAGAUAAGAAGGAGCGUCGAAAAUGGGUAAACAUGAGGAUCACCCAUGUAAAGGGAACGACAGGUAGGUCGCUUAUUUAUAG [AstromonsSSArgB#6]	124	206	226	217	145
ACGAUACGACAUGAGGAUCACCCAUGUGAUACCAGCCUGGAAACAGGCCCUUGGCAGCACAAAUACUCCAGAAACGUAUCGAAAA [MAT - Exclusion Theophlline A - Mod of Eli - D6]	64.9	262	–	–	156
UGACAUUGCUCAGAUACCAGACGUGAGCAUCAGCCAUGUGCCAACAAGUACAAAAUAAAUGUCCCUUGGCAGCUGAGCAAUGUCU [TheoBX 22 #MS2Left #AlternativeMS2 #Theo22]	18.5	23.4	175	–	16.9
AAAUAGGUAGGAGAUACCAGAUACGUUAACAUGAGGAUCACCCAUGUGUAUGCACUUAGUGUCCCUUGGCAGCUCGAGGAUCUGG [#18 Same State - Theophylline B]	23.3	37	–	–	27.4
ACGUGGAAAAUUUGUGGUGCUGCCUCAGGCCGAGGACCGGUACGGCCGCCACUCGUACAUGAGGAUCACCCAUGUCGAGUCACUG [Isanso]	19.2	48	47.4	–	–
CUCAUCCACGCGGCCGCCACUAUAUUGUGGUGCGAAUGUGUCGUAAUACAUGAGGAUCACCCAUGUAGGACCGGGCGUGGAUGAG [#09 Exclusion Tryptophan B]	10.3	14.4	13.5	–	–
GAACAUAAGGAUAGUAUAAUAACUACAGAAGGAGCGUCAGGAAGGACAGGUAGGUCGCUGGAAGACAUGAGGAUCACCCAUGUUU [#03 Same State - Arginine A]	20.6	28.8	21.1	21.4	17.1

Sequence	apparent KD of MS2 coat protein (input ligand: arginine 13.2 mM) [nM]	apparent KD of MS2 coat protein [1] [nM]	apparent KD of MS2 coat protein [2] [nM]	apparent KD of MS2 coat protein (input ligand: none) [nM]	apparent KD of MS2 coat protein [3] [nM]
AGCCGUACGUACGGAAACGUACGUACGGCACGAGGACCGGUACGGCCGCCACUCGCCCACAUGAGGAUCACCCAUGUAGUGGGUG [The One Line]	23.4	58.2	53.4	43.7	103
UGUUUGGUGCGCGAGUGUUGGAUAAAUGAUACCAGUGUAGAUGUACGCCCUUGGCAGCGUAUCCGAACAUGAGGAUCACCCAUGU [5.aB]	26.7	44.9	–	–	36.3
UAUAUAUAUCACUAACUGUUCUUGAGGUCUCGAGGACCGGUACGGCCGCCACUCGGGCCGCCUCACAUGAGGAUCACCCAUGUCC [XTryp A #3]	38.9	94.8	89.4	–	–
AGAAUACAUGUUUUAAUACGGAAAACUGAUACCAGUGUAUCUAUUCACCCUUGGCAGCAGAGACAUGAGGAUCACCCAUGUAUUA [JR_Nu_SSTheophyA_Sub019]	28.1	41.2	–	–	46.6
GAUAUACGUGCGGCCGCCACUGAGUGGCGGGCGUGUCGAGUUACAUGAGGAUCACCCAUGUCACUCAGGACCGGGCACGGAAUUU [Soveri]	7.64	14.1	11	–	–
GGGCAAGAGGGAAGGAGCGUCAGCUGAGUAACAUGAGGAUCACCCAUGUAGCACAUAGUGUGACAGGUAGGUCGCCCUCUGCCCU [SS-ArgB6]	12.6	10.4	8.42	8.97	12.5
AACGGUCGUACCGGAAUGAUCCUCAUGUAACGAGGACCGGUACGGCCGCCACUCGAUAACAUGAGGAUCACCCAUGUAAUAAUAA [|T'-M'-Trp-Ms2|_Design11]	18.8	17	17.2	–	–
AAUGUAUGGCACAUGAGGAUCACCCAUGUGCGAGGACCGGUACGGCCGCCACUCGGUCCUGGGAACUUAUUACUAUACAUUAAUG [XTryp A #18]	11.9	16.9	13.1	–	–
UACUUGCUGACGGCCGCCACUAGAACAUGAGGAUCACCCAUGUAUGGCGGCCGUCAUGGGUGGACUAGGACCGGGUCAGCAAGAU [(Trp1)-(Ms2)-(T)'-(M)'-(Trp2)_Design7]	11.4	14.6	11.7	–	–
CGGCUCAUAAUGGAUACCAGUCCAGCAUAGAAACCUUGACACAUGAGGAUCACCCAUGUUGACCCUUGGCAGCCAUUGAUCAUAC [theeternabot_exclusion_MS2_Theo_B_28]	23.1	36.5	–	–	21.7
AGAUGAGUCACGGCCGCCACUCUUAUCAGGAUCACCCAUGGUUAACAUGAGGAUCACCCAUGUCUGAGGACCGGGUGAUGAGCAU [XTryp B #2]	18.3	31.4	25.3	–	–
ACGUAAUGCAGAAGGAGCGUCAUUCUCUUACAUGAGGAUCACCCAUGUUACAUGGUUUUAUGACAGGUAGGUCGCUGAAGUACGA [JR_SSArginiB_Sub004]	71.4	122	138	105	86.6
UGUAACAUGAGGAUCACCCAUGUGCACGAUACCAGCUUAUUGGUAGGCCCUUGGCAGCGUAUUCGGAAGAUGUAUAAUAUAUAUC [#26 SameState-TheophyllineA]	12.3	17.4	–	–	12.1
GGUCUCUGGAGCGAUACCAGCUUAAUCGUACUGGCCAGGUACAUGAGGAUCACCCAUGUAAGCCCUUGGCAGCGCUCCAGAGACC [#1 Exclusion - Theophylline B Attempt #11 (HarryS)]	6.02	16.4	14.4	12.9	10.5
UAACAUGAGGAUCACCCAUGUAUAGUCGAUACCAGCUCAAGGGAGAGCCCUUGGCAGCGACACUGGUAUCCAUGGGUGUGGAUAC [(Ms2)-(Theo)-(T)'-(M)'-(T)''_Design3]	76.9	86.2	–	–	69.8
ACGUAAAGCAGAAGGAGCGUCUUAAUUCUACAUGAGGAUCACCCAUGUUUACAUUGAAUAUGACAGGUAGGUCGCUGAAGUACGA [JR_SSArginiB_Sub001]	23.5	27.5	30.8	33.9	23.8
GGGCAAGAGGGAAGGAGCGUCAGCUGAGUCACAUGAGGAUCACCCAUGUCGCACAUAGUGUGACAGGUAGGUCGCCCUCUGCCCU [Zaistiqu]	74.3	158	201	131	133
AGAUGAGUCACGGCCGCCACUCUUCACAGGUUCACCCUUGGUUAACAUGAGGAUCACCCAUGUGGGAGGACCGGGUGAUGAGCAU [XTryp B #5]	14.2	17.3	15.6	–	–
